# Measured values as given in IntAct's records for PubMed 30126976.
# B1: Corticotropin-releasing factor receptor 1 (Homo sapiens), P34998-1 (parent)
# chain: MGGHPQLRLVKALLLLGLNPVSASLQDQHCESLSLASNISGLQCNASVDLIGTCWPRSPAGQLVVRPCPAFFYGVRYNTTNNGYRECLANGSWAARVNYSECQEILNEEKKSKVHYHVAVIINYLGHCISLVALLVAFVLFLRLRPGCTHWGDQADGALEVGAPWSGAPFQVRRSIRCLRNIIHWNLISAFILRNATWFVVQLTMSPEVHQSNVGWCRLVTAAYNYFHVTNFFWMFGEGCYLHTAIVLTYSTDRLRKWMFICIGWGVPFPIIVAWAIGKLYYDNEKCWFGKRPGVYTDYIYQGPMILVLLINFIFLFNIVRILMTKLRASTTSETIQYRKAVKATLVLLPLLGITYMLFFVNPGEDEVSRVVFIYFNSFLESFQGFFVSVFYCFLNSEVRSAIRKRWHRWQDKHSIRARVARAMSIPTSPTRVSFHSIKQSTAV
# B2: Solute carrier family 15 member 5 (Homo sapiens), A6NIM6 (parent)
# chain: MSVTGFTITDEKVHLYHSIEKEKTVRHIGDLCSSHSVKKIQVGICLLLVELCERFTFFEVVCNMIPFCTIKLGYHNCQAAILNLCFIGTSILTPVFVRWLTDVYLGRNKLVYICLFLHFLGTALLSVVAFPLEDFYLGTYHAVNNIPKTEQHRLFYVALLTICLGIGGVRAIVCPLGAFGLQEYGSQKTMSFFNWFYWLMNLNATIVFLGISYIQHSQAWALVLLIPFMSMLMAVITLHMIYYNLIYQSEKRCSLLTGVGVLVSALKTCHPQYCHLGRDVTSQLDHAKEKNGGCYSELHVEDTTFFLTLLPLFIFQLLYRMCIMQIPSGYYLQTMNSNLNLDGFLLPIAVMNAISSLPLLILAPFLEYFSTCLFPSKRVGSFLSTCIIAGNLFAALSVMIAGFFEIHRKHFPAVEQPLSGKVLTVSSMPCFYLILQYVLLGVAETLVNPALSVISYRFVPSNVRGTSMNFLTLFNGFGCFTGALLVKLVYLISDGNWFPNTLNKGNLESFFFFLASLTLLNVLGFCSVSQRYCNLNHFNAQNIRGSNLEETLLLHEKSLKFYGSIQEFSSSIDLWETAL
# B3: Plasma membrane calcium-transporting ATPase 1 (Homo sapiens), P20020 (parent)
# chain: MGDMANNSVAYSGVKNSLKEANHDGDFGITLAELRALMELRSTDALRKIQESYGDVYGICTKLKTSPNEGLSGNPADLERREAVFGKNFIPPKKPKTFLQLVWEALQDVTLIILEIAAIVSLGLSFYQPPEGDNALCGEVSVGEEEGEGETGWIEGAAILLSVVCVVLVTAFNDWSKEKQFRGLQSRIEQEQKFTVIRGGQVIQIPVADITVGDIAQVKYGDLLPADGILIQGNDLKIDESSLTGESDHVKKSLDKDPLLLSGTHVMEGSGRMVVTAVGVNSQTGIIFTLLGAGGEEEEKKDEKKKEKKNKKQDGAIENRNKAKAQDGAAMEMQPLKSEEGGDGDEKDKKKANLPKKEKSVLQGKLTKLAVQIGKAGLLMSAITVIILVLYFVIDTFWVQKRPWLAECTPIYIQYFVKFFIIGVTVLVVAVPEGLPLAVTISLAYSVKKMMKDNNLVRHLDACETMGNATAICSDKTGTLTMNRMTVVQAYINEKHYKKVPEPEAIPPNILSYLVTGISVNCAYTSKILPPEKEGGLPRHVGNKTECALLGLLLDLKRDYQDVRNEIPEEALYKVYTFNSVRKSMSTVLKNSDGSYRIFSKGASEIILKKCFKILSANGEAKVFRPRDRDDIVKTVIEPMASEGLRTICLAFRDFPAGEPEPEWDNENDIVTGLTCIAVVGIEDPVRPEVPDAIKKCQRAGITVRMVTGDNINTARAIATKCGILHPGEDFLCLEGKDFNRRIRNEKGEIEQERIDKIWPKLRVLARSSPTDKHTLVKGIIDSTVSDQRQVVAVTGDGTNDGPALKKADVGFAMGIAGTDVAKEASDIILTDDNFTSIVKAVMWGRNVYDSISKFLQFQLTVNVVAVIVAFTGACITQDSPLKAVQMLWVNLIMDTLASLALATEPPTESLLLRKPYGRNKPLISRTMMKNILGHAFYQLVVVFTLLFAGEKFFDIDSGRNAPLHAPPSEHYTIVFNTFVLMQLFNEINARKIHGERNVFEGIFNNAIFCTIVLGTFVVQIIIVQFGGKPFSCSELSIEQWLWSIFLGMGTLLWGQLISTIPTSRLKFLKEAGHGTQKEEIPEEELAEDVEEIDHAERELRRGQILWFRGLNRIQTQIRVVNAFRSSLYEGLEKPESRSSIHNFMTHPEFRIEDSEPHIPLIDDTDAEDDAPTKRNSSPPPSPNKNNNAVDSGIHLTIEMNKSATSSSPGSPLHSLETSL
# B4: Olfactory receptor 5F1 (Homo sapiens), O95221 (parent)
# chain: MTRKNYTSLTEFVLLGLADTLELQIILFLFFLVIYTLTVLGNLGMILLIRIDSQLHTPMYFFLANLSFVDVCNSTTITPKMLADLLSEKKTISFAGCFLQMYFFISLATTECILFGLMAYDRYAAICRPLLYSLIMSRTVYLKMAAGAFAAGLLNFMVNTSHVSSLSFCDSNVIHHFFCDSPPLFKLSCSDTILKESISSILAGVNIVGTLLVILSSYSYVLFSIFSMHSGEGRHRAFSTCASHLTAIILFYATCIYTYLRPSSSYSLNQDKVASVFYTVVIPMLNPLIYSLRSKEVKKALANVISRKRTSSFL
# B5: Ribosomal protein S6 kinase alpha-1 (Homo sapiens), Q15418 (parent)
# chain: MPLAQLKEPWPLMELVPLDPENGQTSGEEAGLQPSKDEGVLKEISITHHVKAGSEKADPSHFELLKVLGQGSFGKVFLVRKVTRPDSGHLYAMKVLKKATLKVRDRVRTKMERDILADVNHPFVVKLHYAFQTEGKLYLILDFLRGGDLFTRLSKEVMFTEEDVKFYLAELALGLDHLHSLGIIYRDLKPENILLDEEGHIKLTDFGLSKEAIDHEKKAYSFCGTVEYMAPEVVNRQGHSHSADWWSYGVLMFEMLTGSLPFQGKDRKETMTLILKAKLGMPQFLSTEAQSLLRALFKRNPANRLGSGPDGAEEIKRHVFYSTIDWNKLYRREIKPPFKPAVAQPDDTFYFDTEFTSRTPKDSPGIPPSAGAHQLFRGFSFVATGLMEDDGKPRAPQAPLHSVVQQLHGKNLVFSDGYVVKETIGVGSYSECKRCVHKATNMEYAVKVIDKSKRDPSEEIEILLRYGQHPNIITLKDVYDDGKHVYLVTELMRGGELLDKILRQKFFSEREASFVLHTIGKTVEYLHSQGVVHRDLKPSNILYVDESGNPECLRICDFGFAKQLRAENGLLMTPCYTANFVAPEVLKRQGYDEGCDIWSLGILLYTMLAGYTPFANGPSDTPEEILTRIGSGKFTLSGGNWNTVSETAKDLVSKMLHVDPHQRLTAKQVLQHPWVTQKDKLPQSQLSHQDLQLVKGAMAATYSALNSSKPTPQLKPIESSILAQRRVRKLPSTTL
# Variants of: B1
# Conditions: with dlg1_human DLG1, Q12959
# dlg1_human DLG1, Q12959, sequence (Q12959 whole entry, looked up): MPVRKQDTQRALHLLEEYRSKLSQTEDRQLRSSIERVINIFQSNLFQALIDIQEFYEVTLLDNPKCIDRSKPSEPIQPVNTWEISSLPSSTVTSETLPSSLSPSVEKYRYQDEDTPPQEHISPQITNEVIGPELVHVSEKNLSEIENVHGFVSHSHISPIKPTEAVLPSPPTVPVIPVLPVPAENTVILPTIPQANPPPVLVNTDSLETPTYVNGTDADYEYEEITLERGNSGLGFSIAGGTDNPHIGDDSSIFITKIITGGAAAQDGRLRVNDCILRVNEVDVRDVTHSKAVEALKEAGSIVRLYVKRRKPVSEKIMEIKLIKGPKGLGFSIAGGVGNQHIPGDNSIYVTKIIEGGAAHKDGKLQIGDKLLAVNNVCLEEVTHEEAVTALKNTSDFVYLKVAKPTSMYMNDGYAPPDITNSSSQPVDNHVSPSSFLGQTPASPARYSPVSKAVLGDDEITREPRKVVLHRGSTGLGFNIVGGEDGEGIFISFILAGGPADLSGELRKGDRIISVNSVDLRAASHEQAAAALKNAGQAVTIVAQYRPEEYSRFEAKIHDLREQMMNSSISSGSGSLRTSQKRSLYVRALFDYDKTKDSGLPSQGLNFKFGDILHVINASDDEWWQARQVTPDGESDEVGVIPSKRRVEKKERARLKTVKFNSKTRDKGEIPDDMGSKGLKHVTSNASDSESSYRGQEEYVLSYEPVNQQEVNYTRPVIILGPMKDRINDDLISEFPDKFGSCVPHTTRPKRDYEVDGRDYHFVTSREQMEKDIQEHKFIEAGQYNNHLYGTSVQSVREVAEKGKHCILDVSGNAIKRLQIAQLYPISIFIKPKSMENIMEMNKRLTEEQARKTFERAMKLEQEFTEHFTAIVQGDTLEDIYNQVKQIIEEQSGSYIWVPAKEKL
row,effect of a mutation on the interaction,Variant
1,increasing interaction strength,MGGHPQLRLVKALLLLGLNPVSASLQDQHCESLSLASNISGLQCNASVDLIGTCWPRSPAGQLVVRPCPAFFYGVRYNTTNNGYRECLANGSWAARVNYSECQEILNEEKKSKVHYHVAVIINYLGHCISLVALLVAFVLFLRLRPGCTHWGDQADGALEVGAPWSGAPFQVRRSIRCLRNIIHWNLISAFILRNATWFVVQLTMSPEVHQSNVGWCRLVTAAYNYFHVTNFFWMFGEGCYLHTAIVLTYSTDRLRKWMFICIGWGVPFPIIVAWAIGKLYYDNEKCWFGKRPGVYTDYIYQGPMILVLLINFIFLFNIVRILMTKLRASTTSETIQYRKAVKATLVLLPLLGITYMLFFVNPGEDEVSRVVFIYFNSFLESFQGFFVSVFYCFLNSEVRSAIRKRWHRWQDKHSIRARVARAMSIPTSPTRVSFHEIKQETAV [S437E;S441E]
2,increasing interaction strength,MGGHPQLRLVKALLLLGLNPVSASLQDQHCESLSLASNISGLQCNASVDLIGTCWPRSPAGQLVVRPCPAFFYGVRYNTTNNGYRECLANGSWAARVNYSECQEILNEEKKSKVHYHVAVIINYLGHCISLVALLVAFVLFLRLRPGCTHWGDQADGALEVGAPWSGAPFQVRRSIRCLRNIIHWNLISAFILRNATWFVVQLTMSPEVHQSNVGWCRLVTAAYNYFHVTNFFWMFGEGCYLHTAIVLTYSTDRLRKWMFICIGWGVPFPIIVAWAIGKLYYDNEKCWFGKRPGVYTDYIYQGPMILVLLINFIFLFNIVRILMTKLRASTTSETIQYRKAVKATLVLLPLLGITYMLFFVNPGEDEVSRVVFIYFNSFLESFQGFFVSVFYCFLNSEVRSAIRKRWHRWQDKHSIRARVARAMSIPTSPTRVSFHSIKQETAV [S441E]

# Variants of: B1
# Conditions: with scrib_human SCRIB
# Target sequence in this assay (Q14160 whole entry): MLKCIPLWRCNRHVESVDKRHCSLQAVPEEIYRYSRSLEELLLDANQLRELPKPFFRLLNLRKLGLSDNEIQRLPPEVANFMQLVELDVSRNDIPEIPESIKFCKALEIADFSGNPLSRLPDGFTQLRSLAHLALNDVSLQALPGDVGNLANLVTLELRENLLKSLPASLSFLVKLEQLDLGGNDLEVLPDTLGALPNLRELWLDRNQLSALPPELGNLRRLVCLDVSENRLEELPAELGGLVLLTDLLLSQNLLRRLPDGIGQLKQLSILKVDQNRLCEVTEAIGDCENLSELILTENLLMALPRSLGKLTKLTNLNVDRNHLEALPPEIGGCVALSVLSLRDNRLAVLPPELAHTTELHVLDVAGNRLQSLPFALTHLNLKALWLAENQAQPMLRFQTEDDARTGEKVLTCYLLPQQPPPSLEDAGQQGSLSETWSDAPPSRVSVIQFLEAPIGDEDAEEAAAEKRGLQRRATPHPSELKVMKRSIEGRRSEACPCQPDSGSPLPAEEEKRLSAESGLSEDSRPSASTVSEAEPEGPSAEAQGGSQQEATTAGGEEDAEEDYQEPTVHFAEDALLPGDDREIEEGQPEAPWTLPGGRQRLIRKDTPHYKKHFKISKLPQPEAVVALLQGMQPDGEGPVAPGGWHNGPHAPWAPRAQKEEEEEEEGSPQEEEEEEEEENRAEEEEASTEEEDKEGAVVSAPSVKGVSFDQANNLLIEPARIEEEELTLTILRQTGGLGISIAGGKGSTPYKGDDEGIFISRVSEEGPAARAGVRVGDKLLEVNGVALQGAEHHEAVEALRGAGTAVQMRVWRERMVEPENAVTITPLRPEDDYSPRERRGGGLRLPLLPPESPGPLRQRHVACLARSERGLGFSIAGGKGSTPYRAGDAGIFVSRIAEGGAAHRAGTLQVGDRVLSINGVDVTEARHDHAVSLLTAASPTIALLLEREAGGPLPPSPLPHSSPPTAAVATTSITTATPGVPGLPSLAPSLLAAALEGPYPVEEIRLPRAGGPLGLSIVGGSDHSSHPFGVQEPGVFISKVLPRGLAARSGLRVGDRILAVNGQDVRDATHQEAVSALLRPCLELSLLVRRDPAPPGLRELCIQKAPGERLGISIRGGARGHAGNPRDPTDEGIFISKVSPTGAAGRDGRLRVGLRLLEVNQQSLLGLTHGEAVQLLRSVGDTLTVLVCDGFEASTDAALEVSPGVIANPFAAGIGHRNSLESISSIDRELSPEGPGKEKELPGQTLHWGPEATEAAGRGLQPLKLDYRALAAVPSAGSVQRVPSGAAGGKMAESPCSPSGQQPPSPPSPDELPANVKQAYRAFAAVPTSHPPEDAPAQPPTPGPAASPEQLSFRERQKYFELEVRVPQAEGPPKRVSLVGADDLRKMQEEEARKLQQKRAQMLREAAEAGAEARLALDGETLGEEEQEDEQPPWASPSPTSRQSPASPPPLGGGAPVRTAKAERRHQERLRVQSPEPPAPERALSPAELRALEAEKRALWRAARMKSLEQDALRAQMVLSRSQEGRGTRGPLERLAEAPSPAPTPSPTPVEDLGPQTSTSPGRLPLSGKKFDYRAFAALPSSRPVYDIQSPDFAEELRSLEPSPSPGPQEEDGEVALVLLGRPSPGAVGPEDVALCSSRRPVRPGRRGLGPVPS
row,effect of a mutation on the interaction,Variant
1,with no effect,MGGHPQLRLVKALLLLGLNPVSASLQDQHCESLSLASNISGLQCNASVDLIGTCWPRSPAGQLVVRPCPAFFYGVRYNTTNNGYRECLANGSWAARVNYSECQEILNEEKKSKVHYHVAVIINYLGHCISLVALLVAFVLFLRLRPGCTHWGDQADGALEVGAPWSGAPFQVRRSIRCLRNIIHWNLISAFILRNATWFVVQLTMSPEVHQSNVGWCRLVTAAYNYFHVTNFFWMFGEGCYLHTAIVLTYSTDRLRKWMFICIGWGVPFPIIVAWAIGKLYYDNEKCWFGKRPGVYTDYIYQGPMILVLLINFIFLFNIVRILMTKLRASTTSETIQYRKAVKATLVLLPLLGITYMLFFVNPGEDEVSRVVFIYFNSFLESFQGFFVSVFYCFLNSEVRSAIRKRWHRWQDKHSIRARVARAMSIPTSPTRVSFHSIKQETAV [S441E]

# Variants of: B2
# Conditions: with scrib_human SCRIB
# Target sequence in this assay (Q14160 whole entry): as the sequence (Q14160 whole entry) above
row,effect of a mutation on the interaction,Variant
1,decreasing interaction strength,MSVTGFTITDEKVHLYHSIEKEKTVRHIGDLCSSHSVKKIQVGICLLLVELCERFTFFEVVCNMIPFCTIKLGYHNCQAAILNLCFIGTSILTPVFVRWLTDVYLGRNKLVYICLFLHFLGTALLSVVAFPLEDFYLGTYHAVNNIPKTEQHRLFYVALLTICLGIGGVRAIVCPLGAFGLQEYGSQKTMSFFNWFYWLMNLNATIVFLGISYIQHSQAWALVLLIPFMSMLMAVITLHMIYYNLIYQSEKRCSLLTGVGVLVSALKTCHPQYCHLGRDVTSQLDHAKEKNGGCYSELHVEDTTFFLTLLPLFIFQLLYRMCIMQIPSGYYLQTMNSNLNLDGFLLPIAVMNAISSLPLLILAPFLEYFSTCLFPSKRVGSFLSTCIIAGNLFAALSVMIAGFFEIHRKHFPAVEQPLSGKVLTVSSMPCFYLILQYVLLGVAETLVNPALSVISYRFVPSNVRGTSMNFLTLFNGFGCFTGALLVKLVYLISDGNWFPNTLNKGNLESFFFFLASLTLLNVLGFCSVSQRYCNLNHFNAQNIRGSNLEETLLLHEKSLKFYGSIQEFSSEIDLWETAL [S571E]

# Variants of: B3
# Conditions: with scrib_human SCRIB
# Target sequence in this assay (Q14160 whole entry): as the sequence (Q14160 whole entry) above
row,effect of a mutation on the interaction,Variant
1,increasing interaction strength,S1219E

# Variants of: B3
# Conditions: with scrib_human SCRIB
# Remark: another data set of the same source
# Target sequence in this assay (Q14160 whole entry): as the sequence (Q14160 whole entry) above
row,effect of a mutation on the interaction,Variant
1,increasing interaction strength,S1215E;S1219E

# Variants of: B4
# Conditions: with scrib_human SCRIB
# Target sequence in this assay (Q14160 whole entry): as the sequence (Q14160 whole entry) above
row,effect of a mutation on the interaction,Variant
1,causing an interaction,MTRKNYTSLTEFVLLGLADTLELQIILFLFFLVIYTLTVLGNLGMILLIRIDSQLHTPMYFFLANLSFVDVCNSTTITPKMLADLLSEKKTISFAGCFLQMYFFISLATTECILFGLMAYDRYAAICRPLLYSLIMSRTVYLKMAAGAFAAGLLNFMVNTSHVSSLSFCDSNVIHHFFCDSPPLFKLSCSDTILKESISSILAGVNIVGTLLVILSSYSYVLFSIFSMHSGEGRHRAFSTCASHLTAIILFYATCIYTYLRPSSSYSLNQDKVASVFYTVVIPMLNPLIYSLRSKEVKKALANVISRKRTESFL [S311E]

# Variants of: B5
# Conditions: with scrib_human SCRIB
# Target sequence in this assay (Q14160 whole entry): as the sequence (Q14160 whole entry) above
row,effect of a mutation on the interaction,Variant
1,increasing interaction strength,S732E;T734E
2,increasing interaction strength,S732E
